Among the data in publication doi:10.1101/2023.08.24.554616 are fold reduced affinity against p53TAD (D.rerio)^17-32, Kd and fold higher affinity than p53TAD (D.rerio)^15-27 values, retold here.

This assay has as its target MDM2 SWIB domain, Danio rerio (Danio rerio). Nature of the assay: fluorescence polarisation.

“p53TAD_(D.rerio)^17-32 triple Ala mutant (AAAQP) (peptide)”: the fold reduced affinity against p53TAD (D.rerio)^17-32 was 7.7 fold.

“p53TAD_(D.rerio)^10-75 (domain or fragment)” yielded a Kd of 49 nM and a fold higher affinity than p53TAD (D.rerio)^15-27 above 70 fold.

Regarding “alternative p53TAD_(D.rerio)^17-32 (P79734), ending with IIQPP (peptide)”, the Kd amounted to 580 nM.

“p53TAD_(D.rerio)^12-55 (domain or fragment)” had a dissociation constant (Kd) of 180 nM.
